Test results: the supplement of paper PMC7877785
± gives the uncertainty stated by the source.

Assay: self-splicing fitness, log relative to wild type (ln ratio); higher = more splicing; Tetrahymena group I intron in knt gene, E. coli kanamycin selection, DiMSum; sequences stand for … in CUCUCU…GGAGGGAAAAGUUAUCAGGCAUGCACCUGGUAGCUAGUCUUUAAACCAAUAGAUUGCAUCGGUUUAAAAGGCAAGACCGUCAAAUUGCGGGAAAGGGGUCAACAGCCGUUCAGUACCAAGUCUCAGGGGAAACUUUGAGAUGGCCUUGCAAAGGGUAUGGUAAUAAGCUGACGGACAUGGUCCUAACCACGCAGCCAAGUCCUAAGUCAACAGAUCUUCUGUUGAUAUGGAUGCAGUUCACAGACUAAAUGUCGGUCGGGGAAGAUGUAUUCUUCUCAUAAGAUAUAGUCGGACCUCUCCUUAAUGGGAGCUAGCGGAUGAAGUGAUGCAACACUGGAGCCGCUGGGAACUAAUUUGUAUGCGAAAGUAUAUUGAUUAGUUUUGGAGUACUCGUGGUCG
How it was run: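 A randomised library covering all eight P1ex-region intron nucleotides was built with the intron in the knt kanamycin-resistance gene on pET-22b(+) and held in E. coli BL21(DE3). Cells were grown overnight at 37°C or 30°C on LB agar, with or without 25 μg/mL kanamycin, plus 100 μg/mL carbenicillin, 50 μM IPTG and 0.2% rhamnose, and pooled colonies were amplicon-sequenced on an Illumina HiSeq 2500. DiMSum fitness is the error-weighted combination of wild-type-normalised replicate fold changes, kanamycin versus none.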

Sequence | self-splicing fitness (ln) (30 °C) | self-splicing fitness (ln) (37 °C)
CGAUAGCAAUAUUACGGACA | -2.4 ± 0.28 | -0.977 ± 0.16
CGAUAGCAAUAUUACGGCAA | -2.65 ± 0.27 | -1.79 ± 0.22
CGAUAGCAAUAUUACGGGGC | -3.2 ± 0.35 | -2.56 ± 0.39
CGAUAGCAAUAUUACGGGUU | -3.84 ± 0.21 | -3.04 ± 0.24
CGAUAGCAAUAUUACGUAAC | -2.84 ± 0.17 | -3.84 ± 0.46
CGAUAGCAAUAUUACGUAAG | -0.163 ± 0.066 | 0.259 ± 0.082
CGAUAGCAAUAUUACGUCCA | -1.86 ± 0.15 | -0.237 ± 0.16
CGAUAGCAAUAUUACGUCGA | -3.77 ± 0.25 | -1.15 ± 0.12
CGAUAGCAAUAUUACGUCGC | -3 ± 0.15 | -2.79 ± 0.21
CGAUAGCAAUAUUACGUCUG | 0.295 ± 0.061 | 0.0438 ± 0.072
CGAUAGCAAUAUUACGUGGA | -1.9 ± 0.24 | -2.62 ± 0.31
CGAUAGCAAUAUUACGUGUG | -0.978 ± 0.057 | -0.336 ± 0.07
CGAUAGCAAUAUUACGUUGA | -2.74 ± 0.18 | -1.3 ± 0.14
CGAUAGCAAUAUUACGUUGG | -1.62 ± 0.091 | -0.0971 ± 0.086
CGCAAGCAAUAUUACGAAAA | -2.47 ± 0.38 | -2.96 ± 0.4
CGCAAGCAAUAUUACGAAGG | -1.28 ± 0.098 | -0.75 ± 0.15
CGCAAGCAAUAUUACGAAUG | -1.4 ± 0.1 | -0.303 ± 0.1
CGCAAGCAAUAUUACGACAA | -2.37 ± 0.17 | -1.51 ± 0.16
CGCAAGCAAUAUUACGAUAC | -2.51 ± 0.17 | -2.58 ± 0.33
CGCAAGCAAUAUUACGAUUG | -2.21 ± 0.056 | -1.01 ± 0.07
CGCAAGCAAUAUUACGCAUC | -2.57 ± 0.12 | -2.66 ± 0.12
CGCAAGCAAUAUUACGCAUG | -2.77 ± 0.11 | -2.19 ± 0.12
CGCAAGCAAUAUUACGCGUA | -3.47 ± 0.15 | -2.55 ± 0.12
CGCAAGCAAUAUUACGCUCA | -0.828 ± 0.076 | -0.6 ± 0.088

Sequence | self-splicing fitness (ln) (30 °C) | self-splicing fitness (ln) (37 °C)
CGCAAGCAAUAUUACGCUUA | -3.58 ± 0.35 | -1.8 ± 0.18
CGCAAGCAAUAUUACGGAGG | -1.02 ± 0.057 | -0.818 ± 0.072
CGCAAGCAAUAUUACGGCGC | -2.37 ± 0.12 | -1.73 ± 0.18
CGCAAGCAAUAUUACGGGAA | -2.96 ± 0.2 | -2.27 ± 0.19
CGCAAGCAAUAUUACGUAGC | -3.3 ± 0.17 | -1.17 ± 0.18
CGCAAGCAAUAUUACGUAGU | -3.1 ± 0.097 | -2.75 ± 0.098
CGCAAGCAAUAUUACGUAUG | -2.25 ± 0.091 | -0.723 ± 0.091
CGCAAGCAAUAUUACGUCGU | -3.27 ± 0.13 | -2.2 ± 0.1
CGCAAGCAAUAUUACGUCUA | -1.6 ± 0.13 | -0.573 ± 0.11
CGCAAGCAAUAUUACGUGUC | -2.39 ± 0.12 | -2.68 ± 0.16
CGCAAGCAAUAUUACGUUGG | -2.66 ± 0.096 | -1.02 ± 0.1
CGCAAGCAAUAUUACGUUGU | -3.69 ± 0.11 | -2.41 ± 0.12
CGCAAGCAAUAUUACGUUUG | -4.31 ± 0.26 | -2.8 ± 0.24
CGCCAGCAAUAUUACGAAUA | -3.44 ± 0.34 | –
CGCCAGCAAUAUUACGACAA | -2.46 ± 0.31 | -0.75 ± 0.15
CGCCAGCAAUAUUACGACCC | -1.84 ± 0.21 | -1.46 ± 0.39
CGCCAGCAAUAUUACGACGG | -1.65 ± 0.11 | -0.853 ± 0.12
CGCCAGCAAUAUUACGAGCA | -0.418 ± 0.064 | 0.817 ± 0.092
CGCCAGCAAUAUUACGAUGA | -2.2 ± 0.12 | -1.48 ± 0.13
CGCCAGCAAUAUUACGAUUU | -2.75 ± 0.19 | -2.62 ± 0.2
CGCCAGCAAUAUUACGCAAG | -1.03 ± 0.077 | -0.526 ± 0.091
CGCCAGCAAUAUUACGCCAU | – | -2.11 ± 0.46
CGCCAGCAAUAUUACGCGAC | -3.18 ± 0.21 | -2.15 ± 0.17
